The text below walks through data of US20240199762A1 (PHILOGEN S P A, published 2024).

In experiment [1] the target is T1, canine FAP (caFAP) extracellular domain (ECD) (domestic dog (Canis familiaris)).
T1 construct: also called caFAP-ECD
T1 chain: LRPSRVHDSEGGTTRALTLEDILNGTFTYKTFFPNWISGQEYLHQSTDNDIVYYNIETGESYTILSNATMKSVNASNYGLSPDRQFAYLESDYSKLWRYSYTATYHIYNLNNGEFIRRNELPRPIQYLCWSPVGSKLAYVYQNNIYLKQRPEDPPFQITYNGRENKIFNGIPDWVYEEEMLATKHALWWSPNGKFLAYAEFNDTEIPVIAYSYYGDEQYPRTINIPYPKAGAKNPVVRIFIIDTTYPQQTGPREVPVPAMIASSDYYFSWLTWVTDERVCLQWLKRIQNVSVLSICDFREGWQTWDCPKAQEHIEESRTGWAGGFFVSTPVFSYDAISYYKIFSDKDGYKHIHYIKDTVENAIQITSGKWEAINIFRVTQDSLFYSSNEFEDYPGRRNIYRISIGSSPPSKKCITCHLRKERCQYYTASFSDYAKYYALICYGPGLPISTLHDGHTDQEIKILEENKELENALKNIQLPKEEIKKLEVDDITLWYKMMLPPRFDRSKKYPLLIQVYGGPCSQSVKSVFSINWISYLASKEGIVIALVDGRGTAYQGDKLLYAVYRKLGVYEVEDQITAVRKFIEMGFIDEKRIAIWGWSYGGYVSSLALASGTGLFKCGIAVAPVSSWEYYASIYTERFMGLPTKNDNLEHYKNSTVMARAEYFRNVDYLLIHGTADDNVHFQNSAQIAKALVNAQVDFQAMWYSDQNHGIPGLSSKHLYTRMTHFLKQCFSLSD
The experiment can be described thus: ELISA, 120 nM caFAP-ECD coated on Maxisorp plates. The protocol:
Cross-reactivity of the anti-hFAP antibodies with caFAP-ECD was tested using ELISA. 120 nM of caFAP-ECD was coated on Maxisorp plates overnight at 4° C. […] Specifically, the C5 antibody was employed in IgG2a format, while all other antibodies, including the 7NP2 antibody, were in IgG1 format. The differences between the IgG2a and IgG1 formats are not expected to affect binding to FAP. After 3 washes with PBS, binding of the antibodies to caFAP-ECD was detected using an anti-human or anti-murine antibody HRP conjugate.

Experiment [2] concerns the target T2, ovine FAP (oFAP) extracellular domain (ECD) (sheep).
T2 construct: also called oFAP-ECD
T2 chain: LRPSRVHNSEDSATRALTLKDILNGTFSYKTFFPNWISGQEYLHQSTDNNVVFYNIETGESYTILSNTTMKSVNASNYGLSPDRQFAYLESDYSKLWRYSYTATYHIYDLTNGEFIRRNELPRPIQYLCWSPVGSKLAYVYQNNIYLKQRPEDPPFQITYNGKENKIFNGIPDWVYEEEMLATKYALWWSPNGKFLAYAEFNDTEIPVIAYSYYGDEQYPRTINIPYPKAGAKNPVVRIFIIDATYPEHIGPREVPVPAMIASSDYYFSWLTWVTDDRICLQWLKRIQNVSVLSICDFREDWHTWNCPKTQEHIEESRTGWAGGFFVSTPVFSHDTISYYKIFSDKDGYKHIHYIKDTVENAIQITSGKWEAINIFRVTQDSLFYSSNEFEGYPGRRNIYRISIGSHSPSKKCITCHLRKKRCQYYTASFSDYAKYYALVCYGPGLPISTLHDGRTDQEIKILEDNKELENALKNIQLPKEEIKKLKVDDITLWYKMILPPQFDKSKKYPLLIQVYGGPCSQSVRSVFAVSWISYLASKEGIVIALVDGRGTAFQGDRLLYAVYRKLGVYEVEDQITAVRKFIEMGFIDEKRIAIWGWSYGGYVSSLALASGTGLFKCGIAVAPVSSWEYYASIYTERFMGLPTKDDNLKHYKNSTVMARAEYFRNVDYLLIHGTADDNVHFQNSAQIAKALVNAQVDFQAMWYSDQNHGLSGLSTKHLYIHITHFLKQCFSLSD
The experiment can be described thus: ELISA, 120 nM oFAP-ECD coated on Maxisorp plates. The protocol:
Cross-reactivity of the anti-hFAP antibodies with oFAP-ECD and pFAP-ECD was tested using ELISA. 120 nM of oFAP-ECD or pFAP-ECD was coated on Maxisorp plates overnight at 4° C. […] Specifically, the C5 antibody was employed in IgG2a format, while all other antibodies, including the 7NP2 antibody, were in IgG1 format. The differences between the IgG2a and IgG1 formats are not expected to affect binding to FAP. After 3 washes with PBS, binding of the antibodies to oFAP-ECD and pFAP-ECD was detected using an anti-human or anti-murine antibody HRP conjugate.
(In an ELISA, binding on a coated surface is turned into a signal by an enzyme label.)

B1: anti-hen egg lysozyme antibody KSF in IgG1 format (antibody, V domains shown)
VH: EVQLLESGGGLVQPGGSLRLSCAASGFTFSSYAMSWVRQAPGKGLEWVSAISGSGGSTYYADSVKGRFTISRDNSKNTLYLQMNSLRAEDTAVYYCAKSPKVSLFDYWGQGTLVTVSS
VL: SSELTQDPAVSVALGQTVRITCQGDSLRSYYASWYQQKPGQAPVLVIYGKNNRPSGIPDRFSGSSSGNTASLTITGAQAEDEADYYCQSSPLNRLAVVFGGGTKLTVLG
notes: Negative control; It was conjugated to FITC in the immunofluorescence and ex vivo experiments; also called KSF IgG1; KSF(IgG1)
Regarding B1, the binding result in experiment [1] and in experiment [2] was “no binding (tested: 5 µg/mL)” in each case.
